First the molecules themselves.
B5: TBK1 CTD (residues 677–729) (domain or fragment, human, UniProt Q9UHD2 677-729, looked up)
chain: YPSSNTLVEMTLGMKKLKEEMEGVVKELAENNHILERFGSLTMDGGLRNVDCL
notes: For the crystal with NAP1 TBD it was made as a NAP1(215–254)-TEV site-TBK1 CTD fusion that was cut with 3C and TEV; not shown: Trx-His6 (pET-32M) or GST (pET-GST), N-terminal, cleaved
B7: TBK1 CTD(E696K) (domain or fragment, human, UniProt Q9UHD2 677-729, looked up)
chain: YPSSNTLVEMTLGMKKLKEKMEGVVKELAENNHILERFGSLTMDGGLRNVDCL
notes: also called TBK1 E696K mutant; not shown: Trx-His6 (pET-32M) or GST (pET-GST), N-terminal, cleaved

Series [1] concerns the molecule itself. Briefly: SEC-MALS; 100 μl at 20 μM on Superose 12 10/300 GL; 50 mM Tris-HCl, 100 mM NaCl, 1 mM DTT, 1 mM EDTA, pH 7.5. For orientation: Size exclusion chromatography separates by hydrodynamic size, large species first.
Series [2] deals with the molecule itself. The experiment in a line: crystal structure; OPTN(26–103) or OPTN(26–103) E50K with TBK1 CTD; 0.1 M MES pH 6.0, 14% PEG 4000, 16 °C; 2.05 Å and 2.5 Å.
Series [3] deals with T1, GST-tagged OPTN(26–119) L54Q (human, UniProt Q96CV9 26-119, L54Q).
T1 construct: source: E. coli BL21 (DE3), purified (glutathione sepharose 4B, size-exclusion chromatography); not shown: GST, N-terminal, kept
Briefly: pull-down; GST-tagged OPTN and Trx-His-tagged TBK1 mixed at 1:4, glutathione sepharose 4B beads; 50 mM Tris pH 7.5, 100 mM NaCl, 1 mM DTT, 1 mM EDTA; Coomassie or anti-His blot. Conditions: both partners purified.

Series [4] concerns the target T2, GST-tagged OPTN(26–119) M44Q (human, UniProt Q96CV9 26-119, M44Q).
T2 construct: source: E. coli BL21 (DE3), purified (glutathione sepharose 4B, size-exclusion chromatography); not shown: GST, N-terminal, kept
The description is as above. Conditions: both partners purified.

Series [5] concerns the target T3, GST-tagged OPTN(26–119) L47Q (human, UniProt Q96CV9 26-119, L47Q).
T3 construct: source: E. coli BL21 (DE3), purified (glutathione sepharose 4B, size-exclusion chromatography); not shown: GST, N-terminal, kept
Described as above. The settings on record: both partners purified.

For a further series, the target named is T4, OPTN(1–119) (human, UniProt Q96CV9 1-119).
T4 construct: not shown: Trx-His6 (pET-32M) or GST (pET-GST), N-terminal, cleaved
The experiment in a line: ITC; 25 °C; 50 mM Tris pH 7.5, 100 mM NaCl, 1 mM EDTA, 1 mM DTT; 1 mM TBK1 fragment in the syringe, 0.1 mM OPTN or NAP1 fragment in the cell; one-site binding model. Conditions: both partners purified. In general terms: In ITC the heat of successive injections is recorded.

The target of a further series is T5, OPTN(26–119) E50K (human, UniProt Q96CV9 26-119, E50K).
T5 construct: also called OPTN E50K mutant; not shown: Trx-His6 (pET-32M) or GST (pET-GST), N-terminal, cleaved
The description is as above. The settings on record: both partners purified.

A further series deals with T6, OPTN(26–119) (human, UniProt Q96CV9 26-119).
T6 construct: A Se-Met labelled form was used for the 2.5 Å crystal structure with TBK1 CTD; also called OPTN NTD; not shown: Trx-His6 (pET-32M) or GST (pET-GST), N-terminal, cleaved
The description is as above. Conditions: both partners purified.

Series [6] concerns the molecule itself. Briefly: crystal structure; NAP1 TBD/TBK1 CTD complex made as a fusion through a TEV site and cut with 3C and TEV; 1% tryptone, 0.05 M HEPES pH 7.0, 12% PEG 3350, 16 °C; 1.5 Å.
Series [7] has as its target B5. The experiment in a line: ITC; 25 °C; 50 mM Tris pH 7.5, 100 mM NaCl, 1 mM EDTA, 1 mM DTT; 1 mM TBK1 fragment in the syringe, 0.1 mM OPTN or NAP1 fragment in the cell; one-site binding model. The settings on record: both partners purified.
The target in the series “TBK1 CTD(E696K)” is B7. The series is described as above. Conditions: both partners purified.

Seven molecules from article PMC5027247, “Structural insights into the interaction and disease mechanism of neurodegenerative disease-associated optineurin and TBK1 proteins” (Nature Communications, 2016) can be followed below.

In general, stoichiometry N refers to a count of units in the complex or per binding partner. What is called Kd is the constant that tells how readily two partners part at equilibrium. A lower Kd goes with a tighter complex.

T4 sequence (Q96CV9 1-119): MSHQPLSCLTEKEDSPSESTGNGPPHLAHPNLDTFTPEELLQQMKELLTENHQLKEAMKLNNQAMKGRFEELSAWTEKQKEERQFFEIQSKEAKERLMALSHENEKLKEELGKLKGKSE

B1: OPTN(1–119) E50K mutant (domain or fragment, human, UniProt Q96CV9 1-119, looked up)
chain: MSHQPLSCLTEKEDSPSESTGNGPPHLAHPNLDTFTPEELLQQMKELLTKNHQLKEAMKLNNQAMKGRFEELSAWTEKQKEERQFFEIQSKEAKERLMALSHENEKLKEELGKLKGKSE
notes: not shown: Trx-His6 (pET-32M) or GST (pET-GST), N-terminal, cleaved
With B1, in series [1], the “stoichiometry N” value was 4.

B2: OPTN(26–103) (domain or fragment, human, UniProt Q96CV9 26-103, looked up)
chain: HLAHPNLDTFTPEELLQQMKELLTENHQLKEAMKLNNQAMKGRFEELSAWTEKQKEERQFFEIQSKEAKERLMALSHE
notes: Forms a dimer in the crystal of the complex with TBK1 CTD; also called short OPTN fragment; not shown: Trx-His6 (pET-32M) or GST (pET-GST), N-terminal, cleaved
Turning to B2, the binding result in [2] is recorded as “binds”.

B3: OPTN(26–103) E50K (domain or fragment, human, UniProt Q96CV9 26-103, looked up)
chain: HLAHPNLDTFTPEELLQQMKELLTKNHQLKEAMKLNNQAMKGRFEELSAWTEKQKEERQFFEIQSKEAKERLMALSHE
notes: as for B1
For B3, the binding result in series [2] is recorded as “binds”.

B4: Trx-His-tagged TBK1 CTD (residues 677–729) (domain or fragment, human, UniProt Q9UHD2 677-729, looked up)
chain: YPSSNTLVEMTLGMKKLKEEMEGVVKELAENNHILERFGSLTMDGGLRNVDCL
notes: source: E. coli BL21 (DE3), purified (Ni-NTA, size-exclusion chromatography); not shown: Trx, N-terminal, kept; His6, N-terminal, kept
As to B4, the binding result in series [3], in series [4] and in [5] was “binds” in each case.

Consider B5, for which the Kd in the series with OPTN(1–119) was roughly 2.5 µM. Moreover, in the series with OPTN(26–119) E50K, the “fold increase of binding affinity against the wild-type OPTN” value is roughly 43 fold. In the series with OPTN(26–119), the Kd was roughly 2.5 µM and the “stoichiometry N” value was 1.15. In series [6], the binding result is “binds”.

B6: NAP1 TBD (residues 215–254) (domain or fragment, human, UniProt Q9H6S1 215-254, looked up)
chain: SSDNMQHAYWELKREMSNLHLVTQVQAELLRKLKTSTAIK
notes: For the crystal it was made as a NAP1(215–254)-TEV site-TBK1 CTD fusion that was cut with 3C and TEV; also called NAP1(215–254); not shown: Trx-His6 (pET-32M) or GST (pET-GST), N-terminal, cleaved
In turn, B6 registered a Kd in series [7] of roughly 0.72 µM. Further, the binding result with TBK1 CTD(E696K) is recorded as “binds”.

As for B7, the “stoichiometry N” value in the series with OPTN(26–119) stood at 0.58.
